Data published in the supplement of paper PMC7877785.
± gives the uncertainty stated by the source.

Test: self-splicing fitness, log relative to wild type (ln ratio); higher = more splicing; Tetrahymena group I intron in knt gene, E. coli kanamycin selection, DiMSum; sequences stand for … in CUCUCU…GGAGGGAAAAGUUAUCAGGCAUGCACCUGGUAGCUAGUCUUUAAACCAAUAGAUUGCAUCGGUUUAAAAGGCAAGACCGUCAAAUUGCGGGAAAGGGGUCAACAGCCGUUCAGUACCAAGUCUCAGGGGAAACUUUGAGAUGGCCUUGCAAAGGGUAUGGUAAUAAGCUGACGGACAUGGUCCUAACCACGCAGCCAAGUCCUAAGUCAACAGAUCUUCUGUUGAUAUGGAUGCAGUUCACAGACUAAAUGUCGGUCGGGGAAGAUGUAUUCUUCUCAUAAGAUAUAGUCGGACCUCUCCUUAAUGGGAGCUAGCGGAUGAAGUGAUGCAACACUGGAGCCGCUGGGAACUAAUUUGUAUGCGAAAGUAUAUUGAUUAGUUUUGGAGUACUCGUGGUCG
In short: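 The eight P1ex-region nucleotides of an intron in the knt kanamycin-resistance gene on pET-22b(+) were all randomised and the library put into E. coli BL21(DE3). Six replicate transformations were grown overnight at 37°C or 30°C on LB agar with or without 25 μg/mL kanamycin, together with 100 μg/mL carbenicillin, 50 μM IPTG and 0.2% rhamnose. Colonies were pooled and amplicon-sequenced on an Illumina HiSeq 2500. Fitness from DiMSum is the error-weighted combination of wild-type-normalised replicate fold changes, kanamycin over none.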

Row | Sequence | self-splicing fitness (ln) (30 °C) | self-splicing fitness (ln) (37 °C)
1 | CACUAGCAAUAUUACGCACG | -0.378 ± 0.099 | -0.823 ± 0.089
2 | CACUAGCAAUAUUACGCACU | -1.54 ± 0.11 | -0.108 ± 0.11
3 | CACUAGCAAUAUUACGCAUU | -3.06 ± 0.23 | -2.17 ± 0.17
4 | CACUAGCAAUAUUACGCCCA | -1.1 ± 0.16 | -1.35 ± 0.27
5 | CACUAGCAAUAUUACGCGAC | -3.04 ± 0.18 | -3.16 ± 0.3
6 | CACUAGCAAUAUUACGCGAG | -2.13 ± 0.26 | -1.79 ± 0.17
7 | CACUAGCAAUAUUACGCUGC | -3.71 ± 0.32 | -2.76 ± 0.35
8 | CACUAGCAAUAUUACGGACA | -1.84 ± 0.16 | -1.99 ± 0.18
9 | CACUAGCAAUAUUACGGAGU | -3.63 ± 0.18 | -2.14 ± 0.16
10 | CACUAGCAAUAUUACGGUAA | -2.52 ± 0.16 | -0.923 ± 0.11
11 | CACUAGCAAUAUUACGUACC | -3.22 ± 0.18 | -2.55 ± 0.24
12 | CACUAGCAAUAUUACGUAGU | -3.45 ± 0.14 | -2.92 ± 0.18
13 | CACUAGCAAUAUUACGUAUU | -3.28 ± 0.17 | -2.11 ± 0.15
14 | CACUAGCAAUAUUACGUCGA | -1.58 ± 0.13 | -1.48 ± 0.1
15 | CAGAAGCAAUAUUACGAAAU | -3.92 ± 0.42 | -1.33 ± 0.38
16 | CAGAAGCAAUAUUACGAACA | -1.81 ± 0.18 | -0.783 ± 0.17
17 | CAGAAGCAAUAUUACGAAGA | -3.8 ± 0.27 | -2.85 ± 0.25
18 | CAGAAGCAAUAUUACGAAUA | -2.43 ± 0.27 | -1.84 ± 0.24
19 | CAGAAGCAAUAUUACGAGAG | -2.78 ± 0.17 | -1.98 ± 0.19
20 | CAGAAGCAAUAUUACGAGCA |  | -1.3 ± 0.38
21 | CAGAAGCAAUAUUACGAUAU | -3.56 ± 0.2 | -2.53 ± 0.15
22 | CAGAAGCAAUAUUACGAUUG | -1.92 ± 0.11 | -1.47 ± 0.12
23 | CAGAAGCAAUAUUACGCACA | -1.56 ± 0.077 | -0.438 ± 0.087
24 | CAGAAGCAAUAUUACGCACC | -3.18 ± 0.41 | -2.1 ± 0.46
25 | CAGAAGCAAUAUUACGCCCA | -1.97 ± 0.15 | -0.986 ± 0.16

Row | Sequence | self-splicing fitness (ln) (30 °C) | self-splicing fitness (ln) (37 °C)
26 | CAGAAGCAAUAUUACGCGUA | -2.63 ± 0.27 | -1.69 ± 0.15
27 | CAGAAGCAAUAUUACGCUAC | -0.828 ± 0.41 | 
28 | CAGAAGCAAUAUUACGCUAG | -2.82 ± 0.18 | -1.73 ± 0.2
29 | CAGAAGCAAUAUUACGCUGG | -2.84 ± 0.15 | -2.21 ± 0.15
30 | CAGAAGCAAUAUUACGCUUG | -4.25 ± 0.16 | -2.99 ± 0.14
31 | CAGAAGCAAUAUUACGGACC | -3.56 ± 0.48 | -2.5 ± 0.46
32 | CAGAAGCAAUAUUACGGCAU | -3.35 ± 0.19 | -1.95 ± 0.15
33 | CAGAAGCAAUAUUACGGGCA | -2.53 ± 0.16 | -1.76 ± 0.18
34 | CAGAAGCAAUAUUACGGGUC | -3.4 ± 0.29 | -2.55 ± 0.2
35 | CAGAAGCAAUAUUACGGGUU | -3.12 ± 0.24 | -3.23 ± 0.21
36 | CAGAAGCAAUAUUACGUACU | -1.83 ± 0.13 | -1.22 ± 0.12
37 | CAGAAGCAAUAUUACGUAGG | -0.872 ± 0.06 | 0.297 ± 0.1
38 | CAGCAGCAAUAUUACGAAGG | -1.16 ± 0.11 | -1.05 ± 0.11
39 | CAGCAGCAAUAUUACGACAA | -3.11 ± 0.39 | -1.67 ± 0.23
40 | CAGCAGCAAUAUUACGACAG | -0.416 ± 0.073 | 0.533 ± 0.1
41 | CAGCAGCAAUAUUACGACUA | -0.351 ± 0.068 | 0.43 ± 0.081
42 | CAGCAGCAAUAUUACGAGUC | -4.41 ± 0.29 | -2.24 ± 0.14
43 | CAGCAGCAAUAUUACGCCAG | -0.865 ± 0.089 | 0.0215 ± 0.12
44 | CAGCAGCAAUAUUACGCGGA | -2.58 ± 0.14 | -1.14 ± 0.11
45 | CAGCAGCAAUAUUACGGCGG | -1.93 ± 0.093 | -1.5 ± 0.16
46 | CAGCAGCAAUAUUACGUCGC | -3.31 ± 0.18 | -2.21 ± 0.21
47 | CAGCAGCAAUAUUACGUCUG | -3.11 ± 0.14 | -2.85 ± 0.22
48 | CAGCAGCAAUAUUACGUGUU | -4.61 ± 0.22 | -2.5 ± 0.13
49 | CAGCAGCAAUAUUACGUUUA | -2.11 ± 0.12 | -2.02 ± 0.12
50 | CAGGAGCAAUAUUACGACAA |  | -1.73 ± 0.41

Row | Sequence | self-splicing fitness (ln) (30 °C) | self-splicing fitness (ln) (37 °C)
51 | CAGGAGCAAUAUUACGAGUG | -2.51 ± 0.2 | -1.95 ± 0.17
52 | CAGGAGCAAUAUUACGAUCU |  | -2.45 ± 0.45
53 | CAGGAGCAAUAUUACGAUUG | -3.77 ± 0.28 | -2.46 ± 0.23
54 | CAGGAGCAAUAUUACGCAUA |  | -1.73 ± 0.33
55 | CAGGAGCAAUAUUACGGAGG | -2.02 ± 0.095 | -1.21 ± 0.12
56 | CAGGAGCAAUAUUACGGGCU | -4.13 ± 0.39 | -2.17 ± 0.34
57 | CAGGAGCAAUAUUACGGGUU | -4.36 ± 0.25 | -2.99 ± 0.19
58 | CAGGAGCAAUAUUACGUAAU | -3.99 ± 0.47 | -2.78 ± 0.44
59 | CAGGAGCAAUAUUACGUAUA | -4.26 ± 0.34 | -1.62 ± 0.21
60 | CAGGAGCAAUAUUACGUCCG | 0.726 ± 0.21 | 0.304 ± 0.29
61 | CAGGAGCAAUAUUACGUUGG | -2.44 ± 0.14 | -0.863 ± 0.14
62 | CAGUAGCAAUAUUACGAACA | -3.3 ± 0.48 | -2.86 ± 0.41
63 | CAGUAGCAAUAUUACGAAGA |  | -2.1 ± 0.41
64 | CAGUAGCAAUAUUACGAAGG | -1.25 ± 0.12 | -1.8 ± 0.14
65 | CAGUAGCAAUAUUACGAAUG | -1.36 ± 0.1 | -0.492 ± 0.11
66 | CAGUAGCAAUAUUACGACGC | -3.07 ± 0.38 | -0.25 ± 0.25
67 | CAGUAGCAAUAUUACGACGU | -1.15 ± 0.14 | -0.0577 ± 0.18
68 | CAGUAGCAAUAUUACGACUC | -0.076 ± 0.18 | 0.539 ± 0.28
69 | CAGUAGCAAUAUUACGAGAG | -3.95 ± 0.24 | -2.76 ± 0.19
70 | CAGUAGCAAUAUUACGAGCU | -3.07 ± 0.28 | 0.322 ± 0.19
71 | CAGUAGCAAUAUUACGAUGG | -0.609 ± 0.077 | -0.119 ± 0.11
72 | CAGUAGCAAUAUUACGCAGG | -1.59 ± 0.096 | -0.318 ± 0.11
73 | CAGUAGCAAUAUUACGCGUA | -2.89 ± 0.27 | -1.64 ± 0.19
74 | CAGUAGCAAUAUUACGGAUA | -1.58 ± 0.32 | -2.79 ± 0.38
75 | CAGUAGCAAUAUUACGGGUC | -3.88 ± 0.37 | -1.32 ± 0.24

Row | Sequence | self-splicing fitness (ln) (30 °C) | self-splicing fitness (ln) (37 °C)
76 | CAGUAGCAAUAUUACGGGUU | -2.49 ± 0.18 | -1.82 ± 0.2
77 | CAGUAGCAAUAUUACGGUAC | -5 ± 0.45 | -3 ± 0.27
78 | CAGUAGCAAUAUUACGUCAA | -2.64 ± 0.14 | -2.59 ± 0.26
79 | CAGUAGCAAUAUUACGUCGU | -2.6 ± 0.17 | -2.44 ± 0.17
80 | CAGUAGCAAUAUUACGUGAU | -4.22 ± 0.34 | -1.2 ± 0.15
81 | CAGUAGCAAUAUUACGUGCG | -0.0402 ± 0.068 | 0.239 ± 0.088
82 | CAGUAGCAAUAUUACGUGCU | -2.95 ± 0.19 | -1.84 ± 0.3
83 | CAGUAGCAAUAUUACGUGGC | -2.97 ± 0.28 | -2.36 ± 0.29
84 | CAGUAGCAAUAUUACGUUAA | -2.74 ± 0.19 | -3.5 ± 0.23
85 | CAGUAGCAAUAUUACGUUUA | -3.19 ± 0.23 | -3.02 ± 0.25
86 | CAUAAGCAAUAUUACGAAAU | -3.7 ± 0.2 | -2.68 ± 0.22
87 | CAUAAGCAAUAUUACGAAUA | -1.84 ± 0.24 | -2.9 ± 0.43
88 | CAUAAGCAAUAUUACGAAUG | -3.79 ± 0.23 | -2.32 ± 0.19
89 | CAUAAGCAAUAUUACGAGAA |  | -2.27 ± 0.3
90 | CAUAAGCAAUAUUACGAUUA | -1.64 ± 0.14 | -1.4 ± 0.14
91 | CAUAAGCAAUAUUACGCAAA | -2.93 ± 0.44 | -2.46 ± 0.41
92 | CAUAAGCAAUAUUACGCAUC |  | -3.39 ± 0.43
93 | CAUAAGCAAUAUUACGCAUG | -1.55 ± 0.12 | -2.27 ± 0.23
94 | CAUAAGCAAUAUUACGCCAG | -1.42 ± 0.14 | -0.932 ± 0.19
95 | CAUAAGCAAUAUUACGCCGG | -0.252 ± 0.13 | -0.546 ± 0.2
96 | CAUAAGCAAUAUUACGCGAG | -1.99 ± 0.097 | -1.39 ± 0.085
97 | CAUAAGCAAUAUUACGCGCG | -0.536 ± 0.14 | 0.0409 ± 0.15
